Assay results taken from patent US10830762.

Target: human CRBN (amino acids 40-442) in complex with full length human DDB1 (human) (UniProt Q96SW2)
Assay: SPR (Biacore T200): GST-GSPT1 domains 2 and 3 captured by anti-GST antibody, CRBN-DDB1 as analyte, 10 uM Compound C; data not shown

Sequence of human CRBN (amino acids 40-442) in complex with full length human DDB1 (human) (Q96SW2 40-442, chain 1 of 2): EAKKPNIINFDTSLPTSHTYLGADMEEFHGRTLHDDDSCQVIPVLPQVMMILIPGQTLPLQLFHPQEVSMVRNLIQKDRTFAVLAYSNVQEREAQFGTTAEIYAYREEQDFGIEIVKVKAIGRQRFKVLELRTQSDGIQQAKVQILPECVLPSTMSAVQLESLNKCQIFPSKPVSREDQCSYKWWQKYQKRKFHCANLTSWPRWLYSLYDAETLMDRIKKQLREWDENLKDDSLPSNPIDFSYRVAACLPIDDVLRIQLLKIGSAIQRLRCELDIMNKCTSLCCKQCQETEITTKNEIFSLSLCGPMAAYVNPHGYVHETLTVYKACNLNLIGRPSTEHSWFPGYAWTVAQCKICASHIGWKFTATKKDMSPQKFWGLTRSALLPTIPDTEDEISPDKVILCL
Sequence of human CRBN (amino acids 40-442) in complex with full length human DDB1 (human) (Q16531 2-1140, chain 2 of 2, further chain): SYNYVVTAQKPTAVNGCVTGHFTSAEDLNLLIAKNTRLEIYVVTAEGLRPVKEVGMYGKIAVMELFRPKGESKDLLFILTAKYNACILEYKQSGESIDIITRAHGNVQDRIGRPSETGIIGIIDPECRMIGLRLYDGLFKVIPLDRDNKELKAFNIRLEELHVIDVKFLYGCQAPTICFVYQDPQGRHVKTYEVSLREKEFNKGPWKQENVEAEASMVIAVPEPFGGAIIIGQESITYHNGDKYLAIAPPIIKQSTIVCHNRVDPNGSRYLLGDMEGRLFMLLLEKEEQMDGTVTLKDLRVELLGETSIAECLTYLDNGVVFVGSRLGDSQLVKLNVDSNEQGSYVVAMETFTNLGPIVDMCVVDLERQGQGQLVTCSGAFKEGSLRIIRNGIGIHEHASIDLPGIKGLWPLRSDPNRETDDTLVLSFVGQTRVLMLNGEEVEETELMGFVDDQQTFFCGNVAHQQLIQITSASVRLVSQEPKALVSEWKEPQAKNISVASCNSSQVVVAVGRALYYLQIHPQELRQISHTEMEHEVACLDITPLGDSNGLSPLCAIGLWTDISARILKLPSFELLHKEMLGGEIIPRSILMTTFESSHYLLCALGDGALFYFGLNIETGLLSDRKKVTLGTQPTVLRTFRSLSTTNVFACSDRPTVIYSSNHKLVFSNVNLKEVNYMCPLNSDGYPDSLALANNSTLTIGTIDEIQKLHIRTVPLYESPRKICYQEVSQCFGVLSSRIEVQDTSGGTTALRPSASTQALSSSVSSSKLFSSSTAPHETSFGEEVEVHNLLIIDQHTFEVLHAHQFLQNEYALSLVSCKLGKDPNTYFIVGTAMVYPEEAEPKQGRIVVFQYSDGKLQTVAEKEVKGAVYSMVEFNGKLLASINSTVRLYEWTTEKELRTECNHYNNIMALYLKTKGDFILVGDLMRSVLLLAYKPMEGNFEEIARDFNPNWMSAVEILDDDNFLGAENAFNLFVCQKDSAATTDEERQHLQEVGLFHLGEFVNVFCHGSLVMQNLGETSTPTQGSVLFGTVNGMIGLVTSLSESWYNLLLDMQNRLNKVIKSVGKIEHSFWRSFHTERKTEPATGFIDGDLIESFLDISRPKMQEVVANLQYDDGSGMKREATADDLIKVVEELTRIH

## GST-GSPT1-domain 2 and 3 (from UniProt P15170 437-633)
  Kd: 400 nM
